Experimental data published in the Human Domainome abundance scans (Beltran et al. 2025).

B1: Homeobox protein cut-like 1, residues 941 to 1008; numbered along this chain, P39880 (parent)
chain: QEVDTIELTRQVKEKLAKNGICQRIFGEKVLGLSQGSVSDMLSRPKPWSKLTQKGREPFIRMQLWLNG

Variants of: B1
Assay: abundance fitness (aPCA) (normalised: wild type 0, dead -1); higher = more abundant; growth selection in yeast, the domain comes from the species named
Conditions: Homo sapiens

Abundance fitness, by site and new letter:
I25: P -0.578 | A -0.002 | D 0.156 | Q -0.073 | W 0.021 | T 0.083 | G -0.225 | F 0.07 | H 0.073 | Y 0.014 | E 0.125 | S -0.03 | L -0.09 | C -0.283 | K -0.022 | V -0.008
R24: V -0.204 | Q -0.088 | E 0.109 | K -0.07 | C -0.22 | T -0.268 | M -0.315 | Y -0.101 | N 0.005 | W -0.144 | P -0.559 | S -0.136 | I -0.29 | F -0.362 | L -0.253 | G -0.224 | D -0.074
S34: P 0.101 | D -0.046 | F 0.008 | R 0.02 | Y -0.108 | M -0.017 | T -0.196 | G -0.132 | C -0.09 | K 0.017 | H -0.139 | E -0.004 | L -0.113 | V -0.137 | Q -0.125 | W -0.059 | A -0.01
L31: D -0.425 | P -0.233 | V -0.242 | H -0.313 | W -0.138 | E -0.486 | K -0.233 | A -0.273 | I -0.278 | F -0.11 | N -0.319 | C -0.255 | G -0.256 | M -0.191 | R -0.15 | Y -0.351 | T -0.393
D40: C -0.209 | W -0.155 | F -0.251 | E 0.044 | S -0.127 | A -0.158 | I -0.349 | Y -0.212 | P -0.102 | T -0.121 | K -0.352 | H -0.118 | V -0.339 | N -0.133 | R -0.514
K29: G -0.17 | L -0.516 | S -0.12 | C -0.148 | P -0.431 | D -0.202 | F -0.524 | M -0.254 | N 0.365 | Y -0.492 | V -0.195 | I -0.57 | A -0.258 | H -0.121 | T 0.027 | R -0.05 | W -0.273 | E 0.039
V38: P -0.364 | L -0.026 | Y 0.027 | S -0.086 | K -0.161 | N -0.331 | I -0.022 | A -0.215 | F 0.048 | H -0.308 | C -0.096 | D -0.188 | Q -0.273 | M -0.147 | E -0.282 | R -0.22 | W 0.063 | T 0.164 | G -0.263
L42: F -0.158 | E -0.281 | A -0.324 | D -0.393
V30: Y -0.038 | F -0.657 | P 0.123 | A -0.253 | L -0.416 | G 0.111
G27: H -0.184 | I -0.067 | C -0.019 | R -0.177 | Q -0.314 | E -0.131 | V -0.231 | L -0.12 | K -0.137 | W -0.569 | S -0.008 | F -0.086 | M -0.208 | D -0.545 | T -0.201 | Y -0.144 | A 0.1
G36: V -0.084 | T 0.003 | M -0.058 | P -0.055 | A 0.067 | F -0.026 | Q 0.039 | L -0.025 | E 0.107 | K -0.026 | R 0.033 | N -0.014 | S -0.02 | I -0.078 | D 0.028 | C -0.02
Q23: L -0.038 | E -0.068 | M -0.195 | R -0.019 | P -0.044
